Experimental data taken from US20240409621A1.

Tests used:
[1] = biological target: F protein of RSV A2 (on the virus in the neutralization assay) (respiratory syncytial virus, A2 strain) (UniProt P03420); assay: cell-based or functional assay
[2] = biological target: F protein of RSV type B strain 18537 (on the virus in the neutralization assay) (respiratory syncytial virus type B, strain 18537) (UniProt P13843); assay: cell-based or functional assay

Substance: D25 (antibody)
- IC50 of each RSV neutralizing antibody, RSV A2 [1]: 0.0222 µg/mL
- IC50 of each RSV neutralizing antibody, 18537 [2]: 0.167 µg/mL
